Data: IntAct's records for PubMed 39009827
One block for each substance: values may come before it.

Legend:
[1] = target: oxsr1_human OXSR1 (UniProt O95747)
[2] = target: eps15_human EPS15 (UniProt P42566)
[3] = target: ima3_human KPNA4 (UniProt O00629)
[4] = target: ima3_human KPNA4 (UniProt O00629); remark: listed apart in the source
[5] = target: src_human SRC (UniProt P12931)
[6] = target: G3BP2 (UniProt Q9UN86)
[7] = target: terf1_human TERF1 (UniProt P54274)
terf1_human TERF1, sequence (P54274 whole entry): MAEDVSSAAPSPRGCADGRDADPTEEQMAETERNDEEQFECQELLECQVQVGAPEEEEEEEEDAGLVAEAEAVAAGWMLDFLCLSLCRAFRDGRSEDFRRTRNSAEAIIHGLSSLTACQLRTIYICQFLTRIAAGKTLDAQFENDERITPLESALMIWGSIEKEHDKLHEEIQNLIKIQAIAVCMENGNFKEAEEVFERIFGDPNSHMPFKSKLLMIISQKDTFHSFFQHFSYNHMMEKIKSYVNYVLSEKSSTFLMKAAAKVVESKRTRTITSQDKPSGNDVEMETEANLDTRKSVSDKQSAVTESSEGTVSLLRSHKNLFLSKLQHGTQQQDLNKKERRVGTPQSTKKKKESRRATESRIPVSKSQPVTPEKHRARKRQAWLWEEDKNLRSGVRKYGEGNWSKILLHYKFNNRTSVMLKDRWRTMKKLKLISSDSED

oxsr1_human OXSR1, sequence (O95747 whole entry, looked up): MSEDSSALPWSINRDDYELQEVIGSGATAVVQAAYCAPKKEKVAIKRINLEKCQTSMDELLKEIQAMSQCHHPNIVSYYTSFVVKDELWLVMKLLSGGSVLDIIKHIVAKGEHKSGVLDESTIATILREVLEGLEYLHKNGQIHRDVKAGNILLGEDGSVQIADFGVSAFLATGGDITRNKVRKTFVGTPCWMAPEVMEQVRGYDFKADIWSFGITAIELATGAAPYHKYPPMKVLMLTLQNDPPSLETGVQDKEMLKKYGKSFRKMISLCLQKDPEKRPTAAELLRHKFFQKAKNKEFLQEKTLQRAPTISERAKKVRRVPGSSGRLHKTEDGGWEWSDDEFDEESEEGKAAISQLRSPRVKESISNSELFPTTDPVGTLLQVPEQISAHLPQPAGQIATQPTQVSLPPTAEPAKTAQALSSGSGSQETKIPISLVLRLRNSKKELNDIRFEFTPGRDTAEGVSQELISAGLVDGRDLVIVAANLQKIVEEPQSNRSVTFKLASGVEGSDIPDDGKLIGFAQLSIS
ima3_human KPNA4, sequence (O00629 whole entry): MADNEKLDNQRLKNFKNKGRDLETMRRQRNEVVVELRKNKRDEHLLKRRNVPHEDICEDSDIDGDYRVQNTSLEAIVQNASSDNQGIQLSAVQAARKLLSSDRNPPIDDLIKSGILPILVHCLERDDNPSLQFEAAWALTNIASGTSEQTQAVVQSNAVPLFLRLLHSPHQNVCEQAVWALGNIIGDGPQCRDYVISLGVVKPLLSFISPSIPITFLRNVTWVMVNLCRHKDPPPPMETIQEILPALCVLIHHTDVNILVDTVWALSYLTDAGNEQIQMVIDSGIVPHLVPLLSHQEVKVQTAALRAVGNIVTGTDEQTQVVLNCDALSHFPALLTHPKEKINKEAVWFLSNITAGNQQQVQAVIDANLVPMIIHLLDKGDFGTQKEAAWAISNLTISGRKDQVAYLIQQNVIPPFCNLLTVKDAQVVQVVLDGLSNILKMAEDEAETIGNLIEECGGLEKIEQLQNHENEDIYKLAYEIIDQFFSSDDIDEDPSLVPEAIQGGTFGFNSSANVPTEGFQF
eps15_human EPS15, sequence (P42566 whole entry): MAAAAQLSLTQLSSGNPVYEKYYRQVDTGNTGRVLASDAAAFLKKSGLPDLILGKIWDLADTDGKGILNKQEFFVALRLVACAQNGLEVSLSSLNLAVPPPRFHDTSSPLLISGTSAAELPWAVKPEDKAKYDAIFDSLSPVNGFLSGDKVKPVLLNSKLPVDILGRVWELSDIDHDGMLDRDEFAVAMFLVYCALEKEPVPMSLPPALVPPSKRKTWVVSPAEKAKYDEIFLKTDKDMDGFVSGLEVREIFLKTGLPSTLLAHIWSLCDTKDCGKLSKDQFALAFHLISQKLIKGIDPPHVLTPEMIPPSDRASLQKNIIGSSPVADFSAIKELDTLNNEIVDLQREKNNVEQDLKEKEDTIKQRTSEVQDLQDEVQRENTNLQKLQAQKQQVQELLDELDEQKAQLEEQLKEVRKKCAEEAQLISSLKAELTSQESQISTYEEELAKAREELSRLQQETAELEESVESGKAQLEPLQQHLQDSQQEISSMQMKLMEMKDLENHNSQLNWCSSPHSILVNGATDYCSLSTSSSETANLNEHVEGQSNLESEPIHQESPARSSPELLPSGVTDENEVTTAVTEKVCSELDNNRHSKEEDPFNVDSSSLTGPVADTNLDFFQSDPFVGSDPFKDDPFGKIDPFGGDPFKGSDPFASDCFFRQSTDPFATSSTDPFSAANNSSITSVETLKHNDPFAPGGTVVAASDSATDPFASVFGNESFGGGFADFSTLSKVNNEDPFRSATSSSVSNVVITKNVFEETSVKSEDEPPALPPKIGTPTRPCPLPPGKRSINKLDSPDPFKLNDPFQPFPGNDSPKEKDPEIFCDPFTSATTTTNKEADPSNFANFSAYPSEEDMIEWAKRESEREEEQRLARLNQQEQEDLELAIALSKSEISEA
ADP-ribosylation factor-like protein 13B (Homo sapiens), Q3SXY8 N255K, sequence (Q3SXY8 whole entry N255K): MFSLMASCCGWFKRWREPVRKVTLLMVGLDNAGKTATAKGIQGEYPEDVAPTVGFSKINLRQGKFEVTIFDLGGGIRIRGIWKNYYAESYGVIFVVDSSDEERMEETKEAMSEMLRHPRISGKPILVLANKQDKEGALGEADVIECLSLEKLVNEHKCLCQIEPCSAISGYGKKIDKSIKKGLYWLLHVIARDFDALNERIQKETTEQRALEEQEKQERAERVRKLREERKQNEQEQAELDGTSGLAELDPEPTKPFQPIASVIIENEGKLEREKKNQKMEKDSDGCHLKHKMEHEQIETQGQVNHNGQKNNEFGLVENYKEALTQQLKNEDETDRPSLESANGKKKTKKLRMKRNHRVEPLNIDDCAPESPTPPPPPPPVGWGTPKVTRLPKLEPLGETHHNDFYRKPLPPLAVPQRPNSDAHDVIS
G3BP2, sequence (Q9UN86 whole entry): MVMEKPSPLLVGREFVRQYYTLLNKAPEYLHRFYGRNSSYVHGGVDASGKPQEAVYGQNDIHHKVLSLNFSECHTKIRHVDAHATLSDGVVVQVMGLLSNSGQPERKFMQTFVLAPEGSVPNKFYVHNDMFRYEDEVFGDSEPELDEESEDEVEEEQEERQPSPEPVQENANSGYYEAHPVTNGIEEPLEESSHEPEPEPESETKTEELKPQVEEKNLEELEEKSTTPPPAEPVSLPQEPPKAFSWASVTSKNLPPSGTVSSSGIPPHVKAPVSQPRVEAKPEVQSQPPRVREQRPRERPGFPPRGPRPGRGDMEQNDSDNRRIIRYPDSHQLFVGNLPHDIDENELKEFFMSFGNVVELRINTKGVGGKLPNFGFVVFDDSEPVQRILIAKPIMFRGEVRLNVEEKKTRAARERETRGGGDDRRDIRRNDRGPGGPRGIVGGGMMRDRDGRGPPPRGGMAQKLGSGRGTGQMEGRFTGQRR
Endothelial PAS domain-containing protein 1 (Homo sapiens), Q99814 F540L, sequence (Q99814 whole entry F540L, the tested form may be a part): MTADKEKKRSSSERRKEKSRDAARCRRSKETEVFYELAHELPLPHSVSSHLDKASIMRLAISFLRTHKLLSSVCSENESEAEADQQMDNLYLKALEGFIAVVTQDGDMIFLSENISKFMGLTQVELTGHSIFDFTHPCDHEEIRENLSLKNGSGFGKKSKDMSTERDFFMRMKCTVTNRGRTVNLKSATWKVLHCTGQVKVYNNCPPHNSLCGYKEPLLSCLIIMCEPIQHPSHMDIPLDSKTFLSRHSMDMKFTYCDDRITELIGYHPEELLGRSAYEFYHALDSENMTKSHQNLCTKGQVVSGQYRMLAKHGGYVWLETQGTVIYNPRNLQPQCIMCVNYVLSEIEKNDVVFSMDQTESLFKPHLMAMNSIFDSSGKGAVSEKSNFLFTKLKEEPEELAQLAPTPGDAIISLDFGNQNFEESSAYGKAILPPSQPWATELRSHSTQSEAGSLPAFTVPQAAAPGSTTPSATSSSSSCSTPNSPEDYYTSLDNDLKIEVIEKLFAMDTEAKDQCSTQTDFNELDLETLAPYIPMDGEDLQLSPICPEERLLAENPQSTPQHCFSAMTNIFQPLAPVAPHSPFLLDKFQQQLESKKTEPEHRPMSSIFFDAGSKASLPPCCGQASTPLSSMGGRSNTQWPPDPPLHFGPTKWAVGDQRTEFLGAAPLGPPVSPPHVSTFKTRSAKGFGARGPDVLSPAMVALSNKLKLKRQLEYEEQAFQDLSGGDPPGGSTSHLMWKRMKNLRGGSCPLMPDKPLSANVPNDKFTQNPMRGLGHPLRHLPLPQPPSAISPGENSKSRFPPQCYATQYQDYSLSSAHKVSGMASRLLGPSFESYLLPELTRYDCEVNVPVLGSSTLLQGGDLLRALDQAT

effect of a mutation on the interaction [2]: decreasing interaction strength
Substance: ADP-ribosylation factor-like protein 13B (Homo sapiens), Q3SXY8 N255K

effect of a mutation on the interaction [5]: decreasing interaction strength
Substance: Voltage-dependent T-type calcium channel subunit alpha-1H (Homo sapiens), O95180 P684R

effect of a mutation on the interaction [6]: decreasing interaction strength
Substance: Histone-lysine N-methyltransferase, H3 lysine-36 specific (Homo sapiens), Q96L73 L1797P

Second part, the substance before the results:

Substance: Titin (Homo sapiens), Q8WZ42 I34306N
effect of a mutation on the interaction [1]: decreasing interaction strength

Substance: CREB-binding protein (Homo sapiens), Q92793 K13E
effect of a mutation on the interaction [3]: causing an interaction
effect of a mutation on the interaction [4]: disrupting interaction strength

Substance: Titin (Homo sapiens), Q8WZ42 I34306S
effect of a mutation on the interaction [1]: decreasing interaction strength

Substance: Titin (Homo sapiens), Q8WZ42 I34306T
effect of a mutation on the interaction [1]: decreasing interaction strength

Substance: Endothelial PAS domain-containing protein 1 (Homo sapiens), Q99814 F540L
effect of a mutation on the interaction [7]: decreasing interaction strength

Substance: Voltage-dependent T-type calcium channel subunit alpha-1H (Homo sapiens), O95180 P684H
effect of a mutation on the interaction [5]: decreasing interaction strength
